Test results reported in article PMC7111318.

Target: Echo 6 virus full particle (strain SJZ-366) (Echovirus 6 strain SJZ-366)
Test: SPR

Substance | Kd [µM]
Human CD55 soluble protein (extracellular domain) (from UniProt P08174-1 35-285) (domain or fragment) | 0.375
Human FcRn soluble protein (FCGRT extracellular domain + β2 m) (from UniProt P61769 21-119) (complex) | 0.242
